Source: patent US20160052998A1 (GlaxoSmithKline, published 2016)
Substitutions are numbered along the chain they refer to. Several values for one entry are separate records, joined by “and”; a condition that tells them apart may be missing. Equal entries are not always repeated.

B1: Rat Serum Albumin (other, UniProt P02770 25-608, looked up)
chain: EAHKSEIAHRFKDLGEQHFKGLVLIAFSQYLQKCPYEEHIKLVQEVTDFAKTCVADENAENCDKSIHTLFGDKLCAIPKLRDNYGELADCCAKQEPERNECFLQHKDDNPNLPPFQRPEAEAMCTSFQENPTSFLGHYLHEVARRHPYFYAPELLYYAEKYNEVLTQCCTESDKAACLTPKLDAVKEKALVAAVRQRMKCSSMQRFGERAFKAWAVARMSQRFPNAEFAEITKLATDVTKINKECCHGDLLECADDRAELAKYMCENQATISSKLQACCDKPVLQKSQCLAEIEHDNIPADLPSIAADFVEDKEVCKNYAEAKDVFLGTFLYEYSRRHPDYSVSLLLRLAKKYEATLEKCCAEGDPPACYGTVLAEFQPLVEEPKNLVKTNCELYEKLGEYGFQNAVLVRYTQKAPQVSTPTLVEAARNLGRVGTKCCTLPEAQRLPCVEDYLSAILNRLCVLHEKTPVSEKVTKCCSGSLVERRPCFSALTVDETYVPKEFKAETFTFHSDICTLPDKEKQIKKQTALAELVKHKPKATEDQLKTVMGDFAQFVDKCCKAADKDNCFATEGPNLVARSKEALA
notes: mature; 'mature' inferred from purified serum protein; also called RSA; rat SA
B2: DOM7r-92-4 (other)
VH: EVQLLESGGGLVQPGGSLRLSCAASGFTFDTSSMLWVRQAPGKGLEWVSVIHQSGTPTYYADSVKGRFTISRDNSKNTLYLQMNSLRAEDTAVYYCAKFPSTHGKFDYWGQGTLVTVSS
notes: Anti-serum albumin VH dAb (VH AlbudAb); also called DOM7h-92-4
B3: DOM7r31 (other)
VH: EVQLLESGGGLVQPGGSLRLSCTASGFTFRHYRMGWVRQAPGKGLEWVSWIRPDGTFTYYADSVKGRFTISRDNSKNTLYLQMNSLRAEDTAVYYCAKSYMGDRFDYWGQGTLVTVSS
notes: Anti-serum albumin VH dAb (VH AlbudAb)
B4: DOM7r-31-14 (other)
VH: B3 VH with G102A
notes: as for B3

Key:
[1] = molecular target: T1, DOM7h-11-15/Exendin-4 fusion DMS number 7143; assay: SPR (BIAcore); KD as listed in PK table
T1 construct: Exendin-4 - (G4S)3 - AlbudAb, made in HEK293E; also called DMS7143

[2] = molecular target: T2, Human Serum Albumin (human, UniProt P02768 25-609); assay: SPR (BIAcore), albumin amine-coupled to CM5 chip
T2 construct: also called HSA; human SA

[3] = molecular target: B1; assay: SPR (BIAcore), albumin amine-coupled to CM5 chip
[4] = molecular target: T3, Cynomolgus monkey Serum Albumin (Cynomolgus monkey, UniProt A2V9Z4 25-608); assay: SPR (BIAcore), albumin amine-coupled to CM5 chip
T3 construct: mature; 'mature' inferred from purification out of serum; also called CSA; cyno serum albumin

[5] = molecular target: T4, mouse serum albumin (mouse, UniProt P07724 25-608); assay: SPR (BIAcore), albumin amine-coupled to CM5 chip
T4 construct: mature; 'mature' inferred from purified serum protein; also called MSA; mouse SA

[6] = molecular target: T2, Human Serum Albumin; assay: SPR (BIAcore), albumin amine-coupled to CM5 chip; no KD given
[7] = molecular target: B1; assay: as above
[8] = molecular target: T3, Cynomolgus monkey Serum Albumin; assay: as above
[9] = molecular target: T4, mouse serum albumin; assay: as above
[10] = molecular target: T4, mouse serum albumin; assay: SPR (BIAcore); multiple independent measurements
[11] = molecular target: T4, mouse serum albumin; assay: SPR (BIAcore); multiple independent measurements (first of two values of 12)
[12] = molecular target: T4, mouse serum albumin; assay: SPR (BIAcore); multiple independent measurements (second of two values of 12)

For B1, the Kd [1] was 273 nM.

For B2, the Kd [2] was 130 nM, the Kd [3] was 260 nM and the Kd [4] was 98 nM. It also gave a Kd [5] of 110 nM.

B3: binds [6]; binds [7]; binds [8]. B3: binds [9].

With B4 the Kd [10] was 6 nM and 14.2 nM, the Kd [11] was 12 nM and the Kd [12] was 12 nM.
